Laboratory results published in article PMC3602352.

Legend:
[1] = biological target: L68A CzrA (Staphylococcus aureus); experiment: SEC
[2] = biological target: L68V CzrA (Staphylococcus aureus); experiment: SEC
[3] = biological target: V66A CzrA (Staphylococcus aureus); experiment: SEC
[4] = biological target: V66A/L68V CzrA (Staphylococcus aureus); experiment: SEC
H96C CzrA = H96C CzrA (Staphylococcus aureus, UniProt O85142 1-106, H96C); experiment: fluorescence anisotropy
V66A CzrA = V66A CzrA (Staphylococcus aureus, UniProt O85142 1-106, V66A); experiment: fluorescence anisotropy

L68A CzrA (natural protein)
stoichiometry N [1]: 2

L68V CzrA (natural protein)
stoichiometry N [2]: 2

V66A CzrA (natural protein)
stoichiometry N [3]: 2

V66A/L68V CzrA (natural protein)
stoichiometry N [4]: 2

B1: 28-bp native CzrO (dsDNA)
DNA 1: TAATATATGAACAAATATTCAGATGAAA
DNA 2: TTTCATCTGAATATTTGTTCATATATTA
binding result (H96C CzrA): binds
binding signal (V66A CzrA): 460 fold tighter than Zn2 wild-type CzrA
